Measured values published in the RNAGym collection of RNA variant scans (doi:10.1073/pnas.2313332121).

B1: TPR t1 (parent)
chain: GACCAAUCUGCCCUCAGAGCUCGAGAACAUCUUCGGAUGCAGAGGAGGCAGGCUUCGGUGGCGCGAUAGCGCCAACGUCCUCAACCUCCAAUGCAUCCCACCACAUGAUGAUGCCUGAAGAGCCUUGGUUUUUUG

Variants of: B1
Assay: polymerase ribozyme fitness, log enrichment relative to wild type (log ratio); higher = more active; in vitro selection for triplet polymerase activity
Summary of the method: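 A single round of triplicate in vitro selection, including frozen incubation at −7 °C, was applied to PCR-built, transcribed mutant libraries of each subunit of a heterodimeric triplet polymerase ribozyme. Illumina sequencing of input and output libraries retained genotypes with ≥10 input reads and ≥1 read per output. Fitness is the base-2 logarithm of genotype enrichment divided by wild-type enrichment, from inverse-variance-weighted replicate averages.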

Variant | polymerase ribozyme fitness (log ratio)
A5C C72U | -1.39
A5C G69A | -3.11
A5C G69C | -1.74
A5U A46U C73A A90U C123A | -1.41
A5G U9A A27G C53U U126A U133A | -3.09
A5U C15G A43G U54G C114U G122U | -6.04
A5U C11A G63A G93U | -2.91
A5G C8U G63U C70A C86G | 0.268
A5U U92G C104U | -2.44
A5U C12A C22G A27C U38G A111U | -2.81
A5C G60U | -1.18
A5G C12U G39U | -0.29
A5U C123A | 1.2
A5G C22G C73G G93U G110A | -6.4
A5U C28U C72A U78C | -1.78
A5U A6C C8G G47A G113C | -2.19
A5U G63U U133A | -2.34
A5G G36U G63C A111C A119C | -4.21
A5C U32C C53U G57A C85A | -3.78
A5U C12G G58C A90U C124G G128A | -2.47
A5U G48C | -2.24
A5C G77A | -0.654
A5U G44C C70U A84C C104A G117C | -7.15
A5G A84U U112G | -0.141

Variant | polymerase ribozyme fitness (log ratio)
A5G U78C C80A | -2.8
A5C G10A C34A G63U | -4.64
A5U C70G U106A C114U | -5.21
A5U G19A C72G U112G | -4.06
A5U G122A | -0.551
A5U C104A | -2
A5U A37C G113U | -3.79
A5U C22G | -3.43
A5C C82U A84G U112A | -1.06
A5U A103C G110A G113C | -5.8
A5C U92A C101U C115A U133G | -4.61
A5U C8U C101G | -1.15
A5C U54C C82G C104A U131C | -1.29
A5U C62U | -0.31
A5U G60U U116C | -1.69
A5U C72G U106C | -0.417
A5G C82G C97A C124A U125G | -4.89
A5U A91U | -3.29
A5U G113A | -1.04
A5U G113C | -2.11
A5C U109A | -4.8
A5U A41U C82G G120A U125G | -2.77
A5U C12A U21G C49A C72G | -2.35
A5U C28U A37U C104U C123G | -3.39

Variant | polymerase ribozyme fitness (log ratio)
A5U G110C | -3.71
A5U C53A C104U G113C | -1.6
A5U C12U G71U | -0.82
A5U G63A U125A | -2.08
A5U G113U C124A | -3.25
A5C G71U A75U C98U | -1.25
A5G C88A G107A C114U | -3.65
A5G C72G | -0.844
A5G C72U | -0.625
A5G C13G A18C G35U A75G C79U A119G C123G U130C | -7.55
A5U U7A A91G C114A | -1.75
A5U C49U C70U | -1.06
A5G G10U G42U | -1.51
A5U C62G A90G C123U | -0.143
A5G C12G G71C A121G | 0.0981
A5U C20A U33A A37G C49G G52A U78A A111U | -5.53
A5U U21G U55C G61U C79U C114A U126A | -1.56
A5C U9A C13U A74C G110C C123A | -5.77
A5U U14G A41U G60C C115U | -4.57
A5G G17U A18G A100C A121G C124G | -3.51
A5U U7A C15U C76A | -1.76
A5G C8U G61U C94U | 0.251
A5C U9C C13U | -0.074
A5C G58A C89A C94G C101U | -5.27

Variant | polymerase ribozyme fitness (log ratio)
A5U C72U U81C | -0.617
A5C C56U C73A C115G G117A | -7.51
A5U U125A U133G | -0.817
A5G U14A | -1.75
A5U A43G G48A C62U A103U G110U | -6.17
A5G U38G G39C | -3.2
A5U C8U C40U C123A | 1.55
A5U C12U U21A A84G | -2.37
A5U U14A C53U U112A | 0.0341
A5U A74C G122A | -1.42
A5C U55C G120U C123G U131A | 0.062
A5C G63C A75C C94A G113C G122U | -4.55
A5G C13U A46U C56A | -0.813
A5U C22U A50U U54G | -6.42
A5G C49A C115U U132A | -0.466
A5G U59G G63U C73G A111C | -6
A5U A6U C20U G69A U81A G113A | -2.02
A5C U87G U96G C104U A121C | 0.96
A5U C28U C62G | -5.59
A5C G10A C34A C123U | -0.78
A5G G63A | -1.41
A5U C64U C85G C86U U109A C124G U133G | -6.39
A5C G10A U92G | -3.52
A5U U54G C79A G110C | -6.31

Variant | polymerase ribozyme fitness (log ratio)
A5G A121C | 0.258
A5U A6C C49G U54A | -0.438
A5G A18G C79A U81C C89U G93U G120C C124U | -6.53
A5U C13G G63A C89U U92A G120A | -5.85
A5G G61A U78A A84C U129A | -1.36
A5U A43G C124A | -0.815
A5G G17A | -2.47
A5G C49G U116G G117C | -3.05
A5U C8G C80A A83U | -3.88
A5G C82G | -0.685
A5U A43G G44A G52C C124U G128U | -4.6
A5G C8U A121C | 1.12
A5U U7G A43U G71U A83C | -2.36
A5C C73G C86G C99U G110A U112G | -7.21
A5G G58A G63A | -0.764
A5G U81A | -0.807
A5U A18C C124U | -0.683
A5G C13A C53U U59G | -1.69
A5U U7C C8U C11U C86A | -1.5
A5C G17U A50C C88A | -4.51
A6C A18U A50C G77U U87A | -3.65
A5G C12A C72G U87A C115G U131C | -3.53
A5U A90G C123U | 0.65
A5U A41U C64U G120C | -1.19

Variant | polymerase ribozyme fitness (log ratio)
A5G C11A C70A G71A A121C G122U G127A | -3.67
A5U A46U G71C U81A | -4.5
A5C G60A G61A C114A | -4.47
A5G C13U A43U G71A C124U | -1.48
A5G C13U G42U C76A | -2.01
A5G C114A | -1.2
A5G A16C A41G C62U | -2.75
A5G G44A G71U A83C C86U | -1.87
A5U A6U U7G C8U G36A A121C | 0.985
A5U A6G C53U G117A U129A | -2.59
A5U G42A | -1.63
A5U C20A G69U C98G C123G | -2.75
A5U C11A G63U G93U | -3.79
A5G C56A G69A C86A | -3.95
A5U U21C C97U | -1.38
A5G C8G G52C C79U | 0.0143
A5U A16C G57C G69A G93A | -6.66
A5C G60U G128A | -2.44
A5C U92G | -4.05
A5C G10C A43C C124G | -1.41
A5U C73G C94G | -2.07
A5G A16U G61U A66C U129A | -3.64
A5U U33G C76A C80A A83C G113U A119U | -6.4
A5U G61C | -1.74

Variant | polymerase ribozyme fitness (log ratio)
A5U A66C G113U C124A | -4.62
A5U C56U | -0.648
A5U C56G | -1.04
A5C G117U | -3.58
A5G C56U | -0.367
A5U C53U G63A C79G G127C | -2.9
A5G C79U | 0.091
A5U A6C C11U | -0.244
A5G G71U A111C G127A | -1.59
A5U C72U G113U G120U U130C | -4.48
A5U A6G A46C C115G | -2.4
A5C C62U C115A | -1.14
A5G U78A A95C U106G | -3.66
A5C C86U | -0.23
A5G A6C | -0.0257
A5C G17A A41G C53A C56A C70U G71A U112C | -6.41
A5C C64A U112C | -6.42
A5G C28A U33G U55A C73U A100C C124A | -5.92
A5U C12U C49U C94U | -2.22
A5G C72A C73U U81G U106G A118U A121C | -5.16
A5C G39A G69A G120C | -4.21
A5G G61A C94A | -0.707
A5U U9A U32C A37U C49U G69A G93A | -4.95
